Tests used:
Experiment in all cases: PEPSCAN ELISA, looped peptide, 10 ug/ml
[1] = target: looped/cyclic peptide … (rabies virus strain ERA)
[2] = target: looped/cyclic peptide … (rabies virus strain ERA); remark: listed apart in the source
[3] = target: looped/cyclic peptide … (rabies virus strain ERA); remark: listed apart in the source
[4] = target: looped/cyclic peptide … (rabies virus strain ERA); remark: listed apart in the source
[5] = target: looped/cyclic peptide … (rabies virus strain ERA); remark: listed apart in the source
[6] = target: looped/cyclic peptide … (rabies virus strain ERA); remark: listed apart in the source
[7] = target: looped/cyclic peptide … (rabies virus strain ERA); remark: listed apart in the source
[8] = target: looped/cyclic peptide … (rabies virus strain ERA); remark: listed apart in the source
[9] = target: looped/cyclic peptide … (rabies virus strain ERA); remark: listed apart in the source
[10] = target: looped/cyclic peptide … (rabies virus strain ERA); remark: listed apart in the source
[11] = target: looped/cyclic peptide … (rabies virus strain ERA); remark: listed apart in the source
[12] = target: looped/cyclic peptide … (rabies virus strain ERA); remark: listed apart in the source
[13] = target: looped/cyclic peptide … (rabies virus strain ERA); remark: listed apart in the source
[14] = target: looped/cyclic peptide … (rabies virus strain ERA); remark: listed apart in the source
[15] = target: looped/cyclic peptide … (rabies virus strain ERA); remark: listed apart in the source
[16] = target: looped/cyclic peptide … (rabies virus strain ERA); remark: listed apart in the source
[17] = target: looped/cyclic peptide … (rabies virus strain ERA); remark: listed apart in the source
[18] = target: looped/cyclic peptide … (rabies virus strain ERA); remark: listed apart in the source
[19] = target: looped/cyclic peptide … (rabies virus strain ERA); remark: listed apart in the source
[20] = target: looped/cyclic peptide … (rabies virus strain ERA); remark: listed apart in the source
[21] = target: looped/cyclic peptide … (rabies virus strain ERA); remark: listed apart in the source
[22] = target: looped/cyclic peptide … (rabies virus strain ERA); remark: listed apart in the source
[23] = target: looped/cyclic peptide … (rabies virus strain ERA); remark: listed apart in the source
[24] = target: looped/cyclic peptide … (rabies virus strain ERA); remark: listed apart in the source
[25] = target: looped/cyclic peptide … (rabies virus strain ERA); remark: listed apart in the source
[26] = target: looped/cyclic peptide … (rabies virus strain ERA); remark: listed apart in the source
[27] = target: looped/cyclic peptide … (rabies virus strain ERA); remark: listed apart in the source
[28] = target: looped/cyclic peptide … (rabies virus strain ERA); remark: listed apart in the source
[29] = target: looped/cyclic peptide … (rabies virus strain ERA); remark: listed apart in the source
[30] = target: looped/cyclic peptide … (rabies virus strain ERA); remark: listed apart in the source
[31] = target: looped/cyclic peptide … (rabies virus strain ERA); remark: listed apart in the source
[32] = target: looped/cyclic peptide … (rabies virus strain ERA); remark: listed apart in the source
[33] = target: looped/cyclic peptide … (rabies virus strain ERA); remark: listed apart in the source
[34] = target: looped/cyclic peptide … (rabies virus strain ERA); remark: listed apart in the source
[35] = target: looped/cyclic peptide … (rabies virus strain ERA); remark: listed apart in the source
[36] = target: looped/cyclic peptide … (rabies virus strain ERA); remark: listed apart in the source
[37] = target: looped/cyclic peptide … (rabies virus strain ERA); remark: listed apart in the source
[38] = target: looped/cyclic peptide … (rabies virus strain ERA); remark: listed apart in the source
[39] = target: looped/cyclic peptide … (rabies virus strain ERA); remark: listed apart in the source
[40] = target: looped/cyclic peptide … (rabies virus strain ERA); remark: listed apart in the source
[41] = target: looped/cyclic peptide … (rabies virus strain ERA); remark: listed apart in the source
[42] = target: looped/cyclic peptide … (rabies virus strain ERA); remark: listed apart in the source
[43] = target: looped/cyclic peptide … (rabies virus strain ERA); remark: listed apart in the source
[44] = target: looped/cyclic peptide … (rabies virus strain ERA); remark: listed apart in the source
[45] = target: looped/cyclic peptide … (rabies virus strain ERA); remark: listed apart in the source
[46] = target: looped/cyclic peptide … (rabies virus strain ERA); remark: listed apart in the source
[47] = target: looped/cyclic peptide … (rabies virus strain ERA); remark: listed apart in the source
[48] = target: looped/cyclic peptide … (rabies virus strain ERA); remark: listed apart in the source
[49] = target: looped/cyclic peptide … (rabies virus strain ERA); remark: listed apart in the source
[50] = target: looped/cyclic peptide … (rabies virus strain ERA); remark: listed apart in the source
[51] = target: looped/cyclic peptide … (rabies virus strain ERA); remark: listed apart in the source
[52] = target: looped/cyclic peptide … (rabies virus strain ERA); remark: listed apart in the source
[53] = target: looped/cyclic peptide … (rabies virus strain ERA); remark: listed apart in the source
[54] = target: looped/cyclic peptide … (rabies virus strain ERA); remark: listed apart in the source
[55] = target: looped/cyclic peptide … (rabies virus strain ERA); remark: listed apart in the source
[56] = target: looped/cyclic peptide … (rabies virus strain ERA); remark: listed apart in the source
[57] = target: looped/cyclic peptide … (rabies virus strain ERA); remark: listed apart in the source
[58] = target: looped/cyclic peptide … (rabies virus strain ERA); remark: listed apart in the source
[59] = target: looped/cyclic peptide … (rabies virus strain ERA); remark: listed apart in the source
[60] = target: looped/cyclic peptide … (rabies virus strain ERA); remark: listed apart in the source
[61] = target: looped/cyclic peptide … (rabies virus strain ERA); remark: listed apart in the source
[62] = target: looped/cyclic peptide … (rabies virus strain ERA); remark: listed apart in the source
[63] = target: looped/cyclic peptide … (rabies virus strain ERA); remark: listed apart in the source
[64] = target: looped/cyclic peptide … (rabies virus strain ERA); remark: listed apart in the source
[65] = target: looped/cyclic peptide … (rabies virus strain ERA); remark: listed apart in the source
[66] = target: looped/cyclic peptide … (rabies virus strain ERA); remark: listed apart in the source
[67] = target: looped/cyclic peptide … (rabies virus strain ERA); remark: listed apart in the source
[68] = target: looped/cyclic peptide … (rabies virus strain ERA); remark: listed apart in the source
[69] = target: looped/cyclic peptide … (rabies virus strain ERA); remark: listed apart in the source
[70] = target: looped/cyclic peptide … (rabies virus strain ERA); remark: listed apart in the source
[71] = target: looped/cyclic peptide … (rabies virus strain ERA); remark: listed apart in the source
[72] = target: looped/cyclic peptide … (rabies virus strain ERA); remark: listed apart in the source
[73] = target: looped/cyclic peptide … (rabies virus strain ERA); remark: listed apart in the source
[74] = target: looped/cyclic peptide … (rabies virus strain ERA); remark: listed apart in the source
[75] = target: looped/cyclic peptide … (rabies virus strain ERA); remark: listed apart in the source
[76] = target: looped/cyclic peptide … (rabies virus strain ERA); remark: listed apart in the source
[77] = target: looped/cyclic peptide … (rabies virus strain ERA); remark: listed apart in the source
[78] = target: looped/cyclic peptide … (rabies virus strain ERA); remark: listed apart in the source
[79] = target: looped/cyclic peptide … (rabies virus strain ERA); remark: listed apart in the source
[80] = target: looped/cyclic peptide … (rabies virus strain ERA); remark: listed apart in the source
[81] = target: looped/cyclic peptide … (rabies virus strain ERA); remark: listed apart in the source
[82] = target: looped/cyclic peptide … (rabies virus strain ERA); remark: listed apart in the source
[83] = target: looped/cyclic peptide … (rabies virus strain ERA); remark: listed apart in the source
[84] = target: looped/cyclic peptide … (rabies virus strain ERA); remark: listed apart in the source
[85] = target: looped/cyclic peptide … (rabies virus strain ERA); remark: listed apart in the source
[86] = target: looped/cyclic peptide … (rabies virus strain ERA); remark: listed apart in the source
[87] = target: looped/cyclic peptide … (rabies virus strain ERA); remark: listed apart in the source
[88] = target: looped/cyclic peptide … (rabies virus strain ERA); remark: listed apart in the source
[89] = target: looped/cyclic peptide … (rabies virus strain ERA); remark: listed apart in the source
[90] = target: looped/cyclic peptide … (rabies virus strain ERA); remark: listed apart in the source
[91] = target: looped/cyclic peptide … (rabies virus strain ERA); remark: listed apart in the source

B1: human monoclonal antibody CRJA (antibody, V domains shown)
VH: EVQLLESGGGLVQPGGSLRLSCAASGFTFSNYAMSWVRQAPGKGLEWVSAISASGHSTYLADSVKGRFTISRDNSKNTLYLQMNSLRAEDTAVYYCAKDREVTMIVVLNGGFDYWGQGTRVTVSS
VL: EIVLTQSPATLSLSPGERATLACRASQTASRYLAWYQQKPGQAPRLLIYDTSNRATGIPARFSGSGSGTDFTLSISSLEPEDFAVYYCQQRFNWPWTFGQGTKVEFK
[1]
  OD: 104 OD
[2]
  OD: 90 OD
[3]
  OD: 94 OD
[4]
  OD: 54 OD
[5]
  OD: 100 OD
[6]
  OD: 105 OD
[7]
  OD: 78 OD
[8]
  OD: 87 OD
[9]
  OD: 90 OD
[10]
  OD: 108 OD
[11]
  OD: 79 OD
[12]
  OD: 46 OD
[13]
  OD: 52 OD
[14]
  OD: 100 OD
[15]
  OD: 96 OD
[16]
  OD: 112 OD
[17]
  OD: 78 OD
[18]
  OD: 103 OD
[19]
  OD: 84 OD
[20]
  OD: 71 OD
[21]
  OD: 96 OD
[22]
  OD: 105 OD
[23]
  OD: 73 OD
[24]
  OD: 105 OD
[25]
  OD: 132 OD
[26]
  OD: 68 OD
[27]
  OD: 71 OD
[28]
  OD: 87 OD
[29]
  OD: 103 OD
[30]
  OD: 98 OD
[31]
  OD: 105 OD
[32]
  OD: 113 OD
[33]
  OD: 165 OD
[34]
  OD: 92 OD
[35]
  OD: 92 OD
[36]
  OD: 104 OD
[37]
  OD: 127 OD
[38]
  OD: 96 OD
[39]
  OD: 114 OD
[40]
  OD: 93 OD
[41]
  OD: 115 OD
[42]
  OD: 165 OD
[43]
  OD: 120 OD
[44]
  OD: 42 OD
[45]
  OD: 92 OD
[46]
  OD: 110 OD
[47]
  OD: 94 OD
[48]
  OD: 104 OD
[49]
  OD: 108 OD
[50]
  OD: 105 OD
[51]
  OD: 44 OD
[52]
  OD: 90 OD
[53]
  OD: 117 OD
[54]
  OD: 100 OD
[55]
  OD: 115 OD
[56]
  OD: 104 OD
[57]
  OD: 88 OD
[58]
  OD: 160 OD
[59]
  OD: 75 OD
[60]
  OD: 98 OD
[61]
  OD: 82 OD
[62]
  OD: 104 OD
[63]
  OD: 78 OD
[64]
  OD: 83 OD
[65]
  OD: 58 OD
[66]
  OD: 92 OD
[67]
  OD: 71 OD
[68]
  OD: 87 OD
[69]
  OD: 98 OD
[70]
  OD: 94 OD
[71]
  OD: 96 OD
[72]
  OD: 104 OD
[73]
  OD: 112 OD
[74]
  OD: 120 OD
[75]
  OD: 45 OD
[76]
  OD: 98 OD
[77]
  OD: 110 OD
[78]
  OD: 110 OD
[79]
  OD: 68 OD
[80]
  OD: 104 OD
[81]
  OD: 110 OD
[82]
  OD: 43 OD
[83]
  OD: 89 OD
[84]
  OD: 114 OD
[85]
  OD: 71 OD
[86]
  OD: 108 OD
[87]
  OD: 113 OD
[88]
  OD: 86 OD
[89]
  OD: 98 OD
[90]
  OD: 100 OD
[91]
  OD: 55 OD
